The text below walks through data of PMC3605031, “Mitogen-Activated Protein Kinase p38b Interaction with Delta Class Glutathione Transferases from the Fruit Fly, Drosophila melanogaster” (Journal of Insect Science, 2012).

Read-outs that look alike come from different tables or passages of the source.

Experiment [1] addresses Drosophila melanogaster p38b mitogen-activated protein kinase (D. melanogaster) (UniProt O61443).
Experiment [2] shares this target. The source holds these as a separate data set.
The target is the same in experiment [3]. The source holds these as a separate data set.

UniProt O61443, sequence (O61443 whole entry): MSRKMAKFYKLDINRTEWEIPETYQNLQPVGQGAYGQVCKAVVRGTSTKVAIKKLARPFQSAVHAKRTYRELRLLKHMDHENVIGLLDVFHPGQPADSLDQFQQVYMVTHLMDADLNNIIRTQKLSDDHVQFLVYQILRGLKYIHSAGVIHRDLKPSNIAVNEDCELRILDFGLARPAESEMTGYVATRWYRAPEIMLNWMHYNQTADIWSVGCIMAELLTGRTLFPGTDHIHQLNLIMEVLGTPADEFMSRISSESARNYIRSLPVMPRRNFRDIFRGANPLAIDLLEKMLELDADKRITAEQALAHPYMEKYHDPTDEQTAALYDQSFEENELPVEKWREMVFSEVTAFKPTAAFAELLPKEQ

As to “Drosophila melanogaster Delta class glutathione transferase DmGSTD11b (enzyme)”, in experiment [1], the fold change of p38b kinase activity toward ATF2 with GST at 1:1 molar ratio (ADP Quest assay) turned out to be 7.1 fold and the fold change of p38b kinase activity toward jun with GST at 1:1 molar ratio (ADP Quest assay) is 10 fold.

B1: Drosophila melanogaster Delta class glutathione transferase DmGSTD7 (enzyme)
chain: MPNLDLYNFPMAPASRAIQMVAKALGLELNSKLINTMEGDQLKPEFVRINPQHTIPTLVDNGFVIWESRAIAVYLVEKYGKPDSPLYPNDPQKRALINQRLYFDMGTLYDALTKYFFLIFRTGKFGDQEALDKVNSAFGFLNTFLEGQDFVAGSQLTVADIVILATVSTVEWFSFDLSKFPNVERWLKNAPKVTPGWEQNLESLQQGKKFLQDLQAAKEKEVKA
Take B1: the increase of GST activity toward DCNB after incubation with p38b at 1:1 molar ratio in experiment [2] was 10 % increase.

B2: Drosophila melanogaster Delta class glutathione transferase DmGSTD3 (enzyme)
chain: MVGKALGLEFNKKIINTLKGEQMNPDFIKINPQHSIPTLVDNGFTIWESRAILVYLVEKYGKDDALYPKDIQKQAVINQRLYFDMALMYPTLANYYYKAFTTGQFGSEEDYKKVQETFDFLNTFLEGQDYVAGDQYTVADIAILANVSNFDVVGFDISKYPNVARWYDHVKKITPGWEENWAGALDVKKRIEEKQNAAK
As for B2, in experiment [1], the fold change of p38b kinase activity toward ATF2 with GST at 1:1 molar ratio (ADP Quest assay) stood at 1.8 fold and the fold change of p38b kinase activity toward jun with GST at 1:1 molar ratio (ADP Quest assay) came to 2.6 fold.

B3: Drosophila melanogaster Delta class glutathione transferase DmGSTD8 (enzyme)
chain: MDFYYHPCSAPCRSVIMTAKALGVDLNMKLLKVMDGEQLKPEFVKLNPQHCIPTLVDDGFSIWESRAILIYLVEKYGADDSLYPSDPQKKAVVNQRLYFDMGTLFQSFVEAIYPQIRNNHPADPEAMQKVDSAFGHLDTFLEDQEYVAGDCLTIADIALLASVSTFEVVDFDIAQYPNVARWYENAKEVTPGWEENWDGVQLIKKLVQERNE
For the molecule B3, the increase of GST activity toward DCNB after incubation with p38b at 1:1 molar ratio in experiment [2] came to 30 % increase. In experiment [1], the fold change of p38b kinase activity toward ATF2 with GST at 1:1 molar ratio (ADP Quest assay) is 6.5 fold and the fold change of p38b kinase activity toward jun with GST at 1:1 molar ratio (ADP Quest assay) was found to be 8.1 fold.

B4: Drosophila melanogaster Delta class glutathione transferase DmGSTD5 (enzyme)
chain: MDFYYSPRGSGCRTVIMVAKALGVKLNMKLLNTLEKDQLKPEFVKLNPQHTIPTLVDNGFSIWESRAIAVYLVEKYGKDDTLFPKDPKKQALVNQRLYFDMGTLYDSFAKYYYPLFHTGKPGSDEDFKKIESSFEYLNIFLEGQNYVAGDHLTVADIAILSTVSTFEIFDFDLNKYPNVARWYANAKKVTPGWEENWKGAVELKGVFDARQAAAKQ
On to B4, for which, in experiment [2], the decrease of GST activity toward CDNB after incubation with p38b at 1:1 molar ratio was 10 % decrease and the decrease of GST activity toward DCNB after incubation with p38b at 1:1 molar ratio was determined as 40 % decrease. In experiment [1], the fold change of p38b kinase activity toward ATF2 with GST at 1:1 molar ratio (ADP Quest assay) amounted to 1.4 fold and the fold change of p38b kinase activity toward jun with GST at 1:1 molar ratio (ADP Quest assay) came to 1.6 fold. In addition, in experiment [3], the decrease of GST activity toward CDNB after incubation with p38b at 1:1 molar ratio, as told in the discussion was determined as 8 % decrease; the decrease of GST activity toward DCNB after incubation with p38b at 1:1 molar ratio, as told in the discussion was 36 % decrease; the fold change of p38b kinase activity toward jun with GST at 1:1 molar ratio (ADP Quest assay), as told in the discussion came to 1.5 fold.

B5: Drosophila melanogaster Delta class glutathione transferase DmGSTD2 (enzyme)
chain: MDFYYMPGGGGCRTVIMVAKALGLELNKKLLNTMEGEQLKPEFVKLNPQHTIPTLVDNGFSIWESRAIAVYLVEKYGKDDYLLPNDPKKRAVINQRLYFDMGTLYESFAKYYYPLFRTGKPGSDEDLKRIETAFGFLDTFLEGQEYVAGDQLTVADIAILSTVSTFEVSEFDFSKYSNVSRWYDNAKKVTPGWDENWEGLMAMKALFDARKLAAK
B5: the increase of GST activity toward DCNB after incubation with p38b at 1:1 molar ratio in experiment [2] is 37 % increase. The decrease of GST activity toward CDNB after incubation with p38b at 1:1 molar ratio in experiment [3] amounted to 5 % decrease.
